Target: Drug A
Test: cell-based or functional assay

B1: Fab of Antibody B (Fab, V domains shown)
VH: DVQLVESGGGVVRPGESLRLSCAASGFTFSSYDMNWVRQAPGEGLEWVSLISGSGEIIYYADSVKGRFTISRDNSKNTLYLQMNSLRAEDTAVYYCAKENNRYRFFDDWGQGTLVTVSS
VL: ETVLTQSPGTLTLSPGERATLTCRASQSVYTYLAWYQEKPGQAPRLLIYGASSRATGIPDRFSGSGSGTEFTLTISSLQSEDFAVYYCQQYYDRPPLTFGGGTKVEIK
- hemagglutination of Drug A-coated erythrocytes with anti-IgG; molar excess of Fab that prevented it: 400 fold molar excess relative to Drug A

Reference: patent US20200400662A1 (ALX ONCOLOGY, published 2020)
